Consider one molecule from publication PMC11048008.

This assay has as its target β2-adrenergic receptor (β2AR) (human) (UniProt P07550).

B1: CDR2-NDP P4 (25-amino-acid nanobody-derived peptide from the CDR2 of Nb71) (peptide)
peptide: AITTGGNTYYANSVKGRFTISRDNA
For the molecule B1, the cAMP formation (HitHunter cAMP assay) in β2AR-transfected HEK-293 cells, P4 alone 10^-9 to 10^-4 M, no isoproterenol: EC50 was 210 nM; the cAMP formation (HitHunter cAMP assay) in β2AR-transfected HEK-293 cells, P4 alone 10^-9 to 10^-4 M, no isoproterenol: increase in cAMP as percent of the maximum response to isoproterenol is under 20%; the decrease of isoproterenol potency in the cAMP assay by 50 µM P4 in β2AR-transfected HEK-293 cells (pair interfered with: agonist-activated β2AR and endogenous Gαs) is under 20 fold; the reduction of the maximal isoproterenol-induced cAMP level by 50 µM P4 in β2AR-transfected HEK-293 cells (pair interfered with: agonist-activated β2AR and endogenous Gαs) amounted to 40%.
